Laboratory results: article PMC6915088, “Biosynthesis of the Stress-Protectant and Chemical Chaperon Ectoine: Biochemistry of the Transaminase EctB” (Frontiers in Microbiology, 2019)

Experiments:
(Pl)EctB = target: T1, (Pl)EctB (Paenibacillus lautus, UniProt A0A385TGF8); test: activation of apo-enzyme by added PLP, L-glutamate formation by HPLC; format: biochemical; details: 10 mM DAB, 15 mM 2-oxoglutarate, 100 mM Tris-HCl pH 7.0, 100 mM NaCl, 45 °C, 1 min; titration curve only, no constant; Schiff base at Lys274 inferred
T1 construct: full length; N-terminal Strep-tag II (WSHPQFEK) with linker SGMIEGR (factor Xa site), plasmid pAR8; no tag removal described; E. coli BL21; homotetramer; purified as apo-protein, PLP added

[1] = target: the molecule itself; test: SEC-MALS; S200 300/10 GL analytical column with MALS and RI detectors, 4°C; 100 μL sample at 100 μM protein; 20 mM HEPES pH 7.5, 200 mM NaCl, 20 mM MgCl2, 20 mM KCl

Molecule | activation of apo-enzyme by added PLP, L-glutamate formation by HPLC ((Pl)EctB) | stoichiometry N [1]
Cc1ncc(COP(=O)(O)O)c(C=O)c1O [PLP] | the specific activity of (Pl)EctB strictly relies on the addition of PLP | –
(Pl)EctB, L-2,4-diaminobutyrate transaminase EctB from Paenibacillus lautus (enzyme, Paenibacillus lautus strain Y412MC10, UniProt A0A385TGF8 1-430, looked up, EctB (L-2,4-diaminobutyrate transaminase) of Paenibacillus lautus strain Y412MC10; codon-optimized synthetic ectB gene; calculated mass 49.1 kDa including the Strep-tag II peptide and linker; The protein was purified as an apo-protein without PLP; also called (Pl)EctB wild-type protein; P. lautus EctB; not shown: Strep-tag II, N-terminal, kept) MDNQVMEKPKLTVFNKLESEVRSYCRSFQTVFDKARNAKLWDTQGNEYIDFFAGAGALNYGHNNERIREKLVDYILQDGVTHSLDMATGAKETFLTRFQEIILKPRGWDHKVMFPGPTGTNAVEAALKIARKVTGRSTVLCFTNAFHGMSLGSLAVTGNAFKRQGAGVDLSHSVFMPYDGYFGSDVDTMAYMEKLLDDPGSGIPLPAAVIVEAVQGEGGLNAASRQWLQKLARICKDKGMLLILDDIQMGCGRTGSFFSFDDAGIEPDIVCLSKSIGGFGLPMAITLIKPEIDIWEPGEHNGTFRGNNLGFVAAAEALSYWKTEEFQLDIGIREHRIRQSLENVVREYPRLGGEIRGRGMIQGVAFDKPEHAGRLSEIAFEQGLIMETSGPHSEVAKLMPPLTIEMNTLAEGLGIFENSMKQLAAEERLS | – | 4
(Pl)EctB Lys274/His variant (enzyme, Paenibacillus lautus strain Y412MC10, UniProt A0A385TGF8 1-430, looked up, EctB (L-2,4-diaminobutyrate transaminase) of Paenibacillus lautus strain Y412MC10; codon-optimized synthetic ectB gene with Lys274 changed to His (AAA/CAT) by site-directed mutagenesis of pAR8; not shown: Strep-tag II, N-terminal, kept) MDNQVMEKPKLTVFNKLESEVRSYCRSFQTVFDKARNAKLWDTQGNEYIDFFAGAGALNYGHNNERIREKLVDYILQDGVTHSLDMATGAKETFLTRFQEIILKPRGWDHKVMFPGPTGTNAVEAALKIARKVTGRSTVLCFTNAFHGMSLGSLAVTGNAFKRQGAGVDLSHSVFMPYDGYFGSDVDTMAYMEKLLDDPGSGIPLPAAVIVEAVQGEGGLNAASRQWLQKLARICKDKGMLLILDDIQMGCGRTGSFFSFDDAGIEPDIVCLSHSIGGFGLPMAITLIKPEIDIWEPGEHNGTFRGNNLGFVAAAEALSYWKTEEFQLDIGIREHRIRQSLENVVREYPRLGGEIRGRGMIQGVAFDKPEHAGRLSEIAFEQGLIMETSGPHSEVAKLMPPLTIEMNTLAEGLGIFENSMKQLAAEERLS | – | 4
